Source: patent publication US20230242616A1, “CHEMOKINE-SELECTIVE CXCR4 ECTODOMAIN-DERIVED (POLY)PEPTIDE” (Ludwig-Maximilians-Universität München, priority 2020, published 2023)

How the values were obtained:
[1] = target: human macrophage migration-inhibitory factor (MIF) (human) (UniProt P14174); test: cell-based or functional assay
[2] = target: human macrophage migration-inhibitory factor (MIF) (human) (UniProt P14174); test: fluorescence spectroscopic titration
[3] = target: human macrophage migration-inhibitory factor (MIF) (human) (UniProt P14174); test: fluorescence spectroscopic titration, apparent Kd; Fluos-ngm titrated with MIF
[4] = target: human macrophage migration-inhibitory factor (MIF) (human) (UniProt P14174); test: fluorescence spectroscopic titration, apparent Kd; Alexa-488-MIF titrated with ngm
CXCL12 (human) = CXCL12 (human) (UniProt P48061); test: fluorescence spectroscopic titration, apparent KD; Fluos-labelled peptide (5 nM) titrated with CXCL12
[5] = target: msR4M-L1 (CXCR4-ECL1[97-110]-6-Ahx-12-Ado-ECL2[182-196]) (human); test: fluorescence spectroscopic titration, self-assembly; Fluos-msR4M-L1 titrated with unlabelled msR4M-L1
[6] = target: human macrophage migration-inhibitory factor (MIF) (human) (UniProt P14174); test: fluorescence spectroscopic titration of Alexa-MIF with increasing ngm-L5 [panel D]

human macrophage migration-inhibitory factor (MIF) (human), sequence (P14174 2-115 limits assumed): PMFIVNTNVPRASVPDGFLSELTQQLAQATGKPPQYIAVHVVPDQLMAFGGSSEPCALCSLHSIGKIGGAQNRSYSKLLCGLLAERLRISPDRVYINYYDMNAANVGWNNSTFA
CXCL12 (human), sequence (P48061 22-89 limits assumed): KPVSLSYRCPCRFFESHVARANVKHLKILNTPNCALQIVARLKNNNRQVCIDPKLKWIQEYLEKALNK

Substance	Atherogenic inhibitory activity (Dil-LDL uptake) (% of full-length msR4M-L1) [1]	Kd [2] [nM]	Kd [3] [nM]	Kd [4] [nM]	Kd (CXCL12 (human)) [nM]	Kd [5] [nM]	IC50 of inhibition of MIF-triggered Dil-oxLDL uptake (foam cell assay) [1] [nM]	EC50 (read off the curve) [6] [nM]
msR4M-L4 ([ECL1(102-110)]-8 Aoc-[ECL2(187-195)]) (designed binder)	80	12	11.9	43.2	–	–	–	–
msR4M-L3 ([ECL1(102-110)]-6 Ahx-12 Ado-[ECL2(187-195)]) (designed binder)	80	14	44.4	11.7	–	–	–	–
msR4M-L1 (CXCR4-ECL1[97-110]-6-Ahx-12-Ado-ECL2[182-196]) (designed binder)	–	–	–	–	> 5000	142	–	–
msR4M-L5 ([ECL1(102-110)]-O1pen-O1pen-[ECL2(187-195)]) (designed binder)	30	14	14.3	41.8	–	–	69.7	40
